Strand notation (5' to 3'): a small letter for the sugar, then the base; units joined by * are phosphorothioate-linked, units joined directly phosphodiester-linked; [ ] holds rarer units or linkages, { } end groups; capitals alone tell only the bases. m = 2'-O-methyl; r = 2'-OH (RNA)
B1: G000480: TTR sgRNA modified sequence, Human, SEQ ID No. 87; guide sequence of CR003353 (nucleic acid)
guide: mA*mA*mA*rGrGrCrUrGrCrUrGrArUrGrArCrArCrCrUrGrUrUrUrUrArGrAmGmCmUmAmGmAmAmAmUmAmGmCrArArGrUrUrArArArArUrArArGrGrCrUrArGrUrCrCrGrUrUrArUrCrAmAmCmUmUmGmAmAmAmAmAmGmUmGmGmCmAmCmCmGmAmGmUmCmGmGmUmGmCmU*mU*mU*mU
B2: G000502: TTR Cyno specific sgRNA modified sequence, SEQ ID No. 114; guide sequence of CR000689; cross homologous between mouse and cyno (nucleic acid)
guide: mA*mC*mA*rCrArArArUrArCrCrArGrUrCrCrArGrCrGrGrUrUrUrUrArGrAmGmCmUmAmGmAmAmAmUmAmGmCrArArGrUrUrArArArArUrArArGrGrCrUrArGrUrCrCrGrUrUrArUrCrAmAmCmUmUmGmAmAmAmAmAmGmUmGmGmCmAmCmCmGmAmGmUmCmGmGmUmGmCmU*mU*mU*mU
B3: G000486: TTR sgRNA modified sequence, Human, SEQ ID No. 93; guide sequence of CR003339 (nucleic acid)
guide: mA*mC*mA*rCrArArArUrArCrCrArGrUrCrCrArGrCrArGrUrUrUrUrArGrAmGmCmUmAmGmAmAmAmUmAmGmCrArArGrUrUrArArArArUrArArGrGrCrUrArGrUrCrCrGrUrUrArUrCrAmAmCmUmUmGmAmAmAmAmAmGmUmGmGmCmAmCmCmGmAmGmUmCmGmGmUmGmCmU*mU*mU*mU
B4: G000488: TTR sgRNA modified sequence, Human, SEQ ID No. 95; guide sequence of CR003346 (nucleic acid)
guide: mA*mA*mA*rGrUrUrCrUrArGrArUrGrCrUrGrUrCrCrGrGrUrUrUrUrArGrAmGmCmUmAmGmAmAmAmUmAmGmCrArArGrUrUrArArArArUrArArGrGrCrUrArGrUrCrCrGrUrUrArUrCrAmAmCmUmUmGmAmAmAmAmAmGmUmGmGmCmAmCmCmGmAmGmUmCmGmGmUmGmCmU*mU*mU*mU
B5: G000481: TTR sgRNA modified sequence, Human, SEQ ID No. 88; guide sequence of CR003345 (nucleic acid)
guide: mU*mC*mU*rArGrArArCrUrUrUrGrArCrCrArUrCrArGrGrUrUrUrUrArGrAmGmCmUmAmGmAmAmAmUmAmGmCrArArGrUrUrArArArArUrArArGrGrCrUrArGrUrCrCrGrUrUrArUrCrAmAmCmUmUmGmAmAmAmAmAmGmUmGmGmCmAmCmCmGmAmGmUmCmGmGmUmGmCmU*mU*mU*mU
B6: G000499: TTR sgRNA modified sequence, Human, SEQ ID No. 106; guide sequence of CR005303 (nucleic acid)
guide: mU*mG*mA*rArUrCrCrArArGrUrGrUrCrCrUrCrUrGrArGrUrUrUrUrArGrAmGmCmUmAmGmAmAmAmUmAmGmCrArArGrUrUrArArArArUrArArGrGrCrUrArGrUrCrCrGrUrUrArUrCrAmAmCmUmUmGmAmAmAmAmAmGmUmGmGmCmAmCmCmGmAmGmUmCmGmGmUmGmCmU*mU*mU*mU
B7: G000482: TTR sgRNA modified sequence, Human, SEQ ID No. 89; guide sequence of CR003365 (nucleic acid)
guide: mU*mG*mU*rArGrArArGrGrGrArUrArUrArCrArArArGrGrUrUrUrUrArGrAmGmCmUmAmGmAmAmAmUmAmGmCrArArGrUrUrArArArArUrArArGrGrCrUrArGrUrCrCrGrUrUrArUrCrAmAmCmUmUmGmAmAmAmAmAmGmUmGmGmCmAmCmCmGmAmGmUmCmGmGmUmGmCmU*mU*mU*mU
B8: G000489: TTR sgRNA modified sequence, Human, SEQ ID No. 96; guide sequence of CR003344 (nucleic acid)
guide: mU*mU*mU*rGrArCrCrArUrCrArGrArGrGrArCrArCrUrGrUrUrUrUrArGrAmGmCmUmAmGmAmAmAmUmAmGmCrArArGrUrUrArArArArUrArArGrGrCrUrArGrUrCrCrGrUrUrArUrCrAmAmCmUmUmGmAmAmAmAmAmGmUmGmGmCmAmCmCmGmAmGmUmCmGmGmUmGmCmU*mU*mU*mU

Tested on: human TTR
Assay: Serum human TTR ELISA in humanized TTR mice (Table 26)
Format: in vivo, mouse
Conditions: for Serum TTR(% TSS): Table 26, serum human TTR, LNP Formulation Numbers 6-16, 1 mg/kg (total RNA content)
Method: Blood was collected and the serum was isolated as indicated. The total mouse TTR serum levels were determined using a Mouse Prealbumin (Transthyretin) ELISA Kit (Aviva Systems Biology, Cat. OKIA00111); rat TTR serum levels were measured using a rat specific ELISA kit (Aviva Systems Biology catalog number OKIA00159); human TTR serum levels were measured using a human specific ELISA kit (Aviva Systems Biology catalog number OKIA00081); each according to manufacture's protocol. Briefly, sera were serial diluted with kit sample diluent to a final dilution of 10,000-fold, or 5,000-fold when measuring human TTR in mouse sera. 100 ul of the prepared standard curve or diluted serum samples were added to the ELISA plate, incubated for 30 minutes at room temperature then washed 3 times with provided wash buffer. 100 uL of detection antibody was then added to each well and incubated for 20 minutes at room temperature followed by 3 washes. 100 uL of substrate is added then incubated for 10 minutes at room temperature before the addition of 100 uL stop solution. The absorbance of the contents was measured on the Spectramax M5 plate reader with analysis using SoftmaxPro version 7.0 software. Serum TTR levels were quantitated off the standard curve using 4 parameter logistic fit and expressed as ug/mL of serum or percent knockdown relative control (vehicle treated) animals.
The level of human TTR in serum was measured in the mice provided formulation numbers 6-8, 10-13, and 15-16. FIG. 14A is a repeat of FIG. 13 provided for comparison purposes. Knockdown of serum human TTR was detected for each formulation tested, which correlated with the amount of editing detected in liver (See FIG. 14A vs 14B, Table 26).
In another set of experiments, humanized TTR mice were dosed with LNP formulations across a range of doses with guides G000480, G000488, G000489 and G000502. The formulations contained Cas9 mRNA (SEQ ID NO: 1) in a 1:1 ratio by weight to the guide. The LNPs contained Lipid A, Cholesterol, DSPC, and PEG2k-DMG in a 50:38:9:3 molar ratio, respectively, and having a N:P ratio of 6. Dosing was at 1, 0.3, 0.1, or 0.03 mg/kg (n=5/group). The LNPs were prepared using the cross-flow procedure described above and purified and concentrated using PD-10 columns and Amicon centrifugal filter units, respectively. Liver editing results were determined using primers designed to amplify the region of interest for NGS analysis and serum human TTR levels were measured as described above. Results for liver editing are shown in FIG. 26A and serum human TTR levels in FIG. 26B-C.
(§1) In another set of experiments, humanized TTR mice were dosed with LNP formulations across a range of doses with guides G000481, G000482, G000486 and G000499. The formulations contained Cas9 mRNA (SEQ ID NO: 1) in a 1:1 ratio by weight to the guide. […] Dosing was at 1, 0.3, or 0.1 mg/kg (n=5/group). The LNPs were prepared using the cross-flow procedure described above and purified and concentrated using PD-10 columns and Amicon centrifugal filter units, respectively. Liver editing results were determined using primers designed to amplify the region of interest for NGS analysis and serum human TTR levels were measured as described above. Results for liver editing are shown in FIG. 27A and serum human TTR levels in FIG. 27B-C.
as §1, with “guides G000480,” for “guides”, “G000486, G000499” for “G000482, G000486”, “G000502.” for “G000499.”, “1:2” for “1:1”, “Results for liver editing are shown in FIG. 27A and serum human TTR levels in FIG. 27B-C.” left out

[1] = 1, 0.3, 0.1, or 0.03 mg/kg, Cas9 mRNA (SEQ ID NO: 1) 1:1 by weight to guide, FIG. 26B-C
[2] = 1, 0.3, or 0.1 mg/kg, Cas9 mRNA (SEQ ID NO: 1) 1:2 by weight to guide, FIG. 28B-C
[3] = 1, 0.3, or 0.1 mg/kg, Cas9 mRNA (SEQ ID NO: 1) 1:1 by weight to guide, FIG. 27B-C

Molecule | Serum human TTR levels, dose response [1] | Serum human TTR levels, dose response [2] | Serum human TTR levels, dose response [3] | Serum TTR(% TSS)
B1 | A dose response for both editing and serum TTR levels was evident | A dose response for both editing and serum TTR levels was evident | – | –
B2 | A dose response for both editing and serum TTR levels was evident | A dose response for both editing and serum TTR levels was evident | – | –
B3 | – | A dose response for both editing and serum TTR levels was evident | A dose response for both editing and serum TTR levels was evident | –
B4 | A dose response for both editing and serum TTR levels was evident | – | – | –
B5 | – | A dose response for both editing and serum TTR levels was evident | A dose response for both editing and serum TTR levels was evident | 10.52
B6 | – | A dose response for both editing and serum TTR levels was evident | A dose response for both editing and serum TTR levels was evident | 8.39
B7 | – | – | A dose response for both editing and serum TTR levels was evident | –
B8 | A dose response for both editing and serum TTR levels was evident | – | – | –
